Here are results for two molecules from article doi:10.1101/2021.01.26.428356, “Sequence signatures of two IGHV3-53/3-66 public clonotypes to SARS-CoV-2 receptor binding domain” (bioRxiv, 2021).

The assay deals with T1, Fc-tagged receptor-binding domain (RBD) of the SARS-CoV-2 spike (S) protein (SARS-CoV-2, Wuhan-Hu-1 (GenBank …, UniProt P0DTC2)).
T1 construct: also called SARS-CoV-2 RBD; SARS-CoV-2 S RBD-Fc; not shown: Fc, C-terminal, kept
Briefly: BLI; Octet Red96e; Fc-tagged RBD loaded onto the biosensor (streptavidin biosensors as printed), Fab in solution; 1x PBS pH 7.4, 0.01% w/v BSA, 0.002% v/v Tween 20; 60 s association, 60 s dissociation; 1:1 binding model. As to conditions: both partners purified. (In general: BLI is a label-free optical method that tracks binding on a fibre tip over time.)

B1: COV107-23 Fab, wild type (F58) (Fab, V domains shown)
VH: EVQLVESGGGLIQPGGSLRLSCAASGFTVSSNYMSWVRQAPGKGLEWVSVIYSGGSTFYADSVKGRFTISRDNSKNTLYLQMNSLRAEDTAVYYCARDLGTGLFDYWGQGTLVTVSS
VL: DIQLTQSPSFLSASVGDRVTITCRASQGISSYLAWYQQKPGKAPKLLIYAASTLQSGVPSRFSGSGSGTEFTLTISSLQPEDFATYYCQQLDSYPPGTFGPGTKVDIK
notes: also called WT COV107-23; clonotype 1 antibody; source: Expi293F, transiently co-transfected, purified (CaptureSelect CH1-XL column)
What is called Kd is the equilibrium constant for the complex coming apart. A low value points to a tighter complex. Molecule B1 gave a Kd of 1 nM. This counts as single-digit nanomolar.

B2: COVA2-20 Fab, wild type (Y58) (Fab, V domains shown)
VH: EVQLVESGGGLIQPGGSLRLSCAASGFTVSSNYMSWVRQAPGKGLEWVSVIYSGGSTYYADSVKGRFTISRDNSKNTLYLQMNSLRAEDTAVYYCASPLLLTPPDYYYYMDVWGKGTMVTVSS
VL: DVVMTQSPSSLSVSVGDRVTITCRASQGIRNDLGWYQQKPGKAPKRLIYAASSLQSGVPSRFSGSGSGTEFTLTISSLQPEDFATYYCLQHNSYLWTFGQGTKLEIK
Consider B2, for which the binding result was “binds”.
